According to publication PMC4755027:

Target: Human TLR4 on HEK-Blue reporter cells (human) (UniProt O00206)
Conditions: scale: absorbance at 640 nm

Chain of UniProt O00206 (O00206 24-839): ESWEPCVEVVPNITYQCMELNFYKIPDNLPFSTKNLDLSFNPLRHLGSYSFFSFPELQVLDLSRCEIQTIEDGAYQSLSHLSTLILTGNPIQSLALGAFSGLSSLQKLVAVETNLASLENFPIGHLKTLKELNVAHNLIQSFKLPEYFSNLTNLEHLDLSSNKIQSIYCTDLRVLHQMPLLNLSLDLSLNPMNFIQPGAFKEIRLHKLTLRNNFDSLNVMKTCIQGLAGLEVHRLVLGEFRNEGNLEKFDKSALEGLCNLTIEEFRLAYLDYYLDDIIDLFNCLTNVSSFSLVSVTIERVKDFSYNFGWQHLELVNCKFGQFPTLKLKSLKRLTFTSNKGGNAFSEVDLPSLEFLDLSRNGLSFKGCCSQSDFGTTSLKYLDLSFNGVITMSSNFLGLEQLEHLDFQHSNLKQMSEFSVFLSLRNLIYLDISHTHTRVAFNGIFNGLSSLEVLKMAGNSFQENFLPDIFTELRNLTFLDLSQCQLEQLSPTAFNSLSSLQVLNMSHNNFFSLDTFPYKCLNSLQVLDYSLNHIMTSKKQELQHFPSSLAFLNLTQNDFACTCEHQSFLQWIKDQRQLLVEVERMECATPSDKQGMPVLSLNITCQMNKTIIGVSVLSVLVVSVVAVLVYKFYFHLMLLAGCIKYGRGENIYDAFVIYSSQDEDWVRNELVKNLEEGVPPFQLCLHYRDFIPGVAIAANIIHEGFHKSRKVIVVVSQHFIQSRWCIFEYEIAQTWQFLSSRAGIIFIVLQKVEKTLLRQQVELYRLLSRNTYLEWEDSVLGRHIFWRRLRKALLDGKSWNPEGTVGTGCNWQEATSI

Row | Substance | secreted alkaline phosphatase of HEK-Blue human TLR4 reporter cells, absorbance at 640 nm normalized to media controls, mean of three experiments | secreted alkaline phosphatase of HEK-Blue human TLR4 reporter cells, absorbance at 640 nm normalized to media controls, mean of three experiments; significantly superior to equimolar ANXA2t
1 | Bovine annexin A2 heterotetramer (from UniProt P04272 1-339; P60902 1-97) (complex) | 1.7 | 
2 | Human monomeric annexin A2 (from UniProt P07355 1-339) (natural protein) |  | 2.7
